Laboratory results reported in patent US20070286858A1 (Pfizer, published 2007).
Where “and” joins values, the source holds several entries; their conditions need not be identical. Equal values may be shown once.

Columns and labels:
[1] = target: T1, human RAGE-Fc fusion protein (human, UniProt Q15109 23-344); test: ELISA of in vitro translated ScFv on coated human RAGE-Fc, anti-Flag detection
T1 construct: also called hRAGE-Fc; huRAGE-Fc; not shown: Fc domain of human IgG
Protocol: ELISA plates coated with human RAGE-Fc (5 ug/ml) or BSA (200 ug/ml) in bicarbonate buffer overnight at 4° C., washed with PBS+tween 0.05% and blocked for 1 hour at room temperature with 2% milk powder PBS. Plates were incubated with in vitro translated ScFv for 2 hours at room temp. Plates were blocked and detection was with anti-Flag antibody (1/1000 dilution) followed by rabbit anti-mouse HRP (1/1000 dilution). […] Values for Kd of the ScFv in both formats as determined by BIACORE™ are used to determine the optimum antigen concentrations for selection experiments.

[2] = target: T2, BSA (Bos taurus, UniProt P02769); test: ELISA of E. coli periplasmic ScFv cross-linked with anti-His antibody, on coated BSA
T2 construct: control antigen in the ScFv ELISA; also called bovine serum albumin
Protocol: ActRIIb represents a non-binding protein expressed from the same vector as a negative control. ELISA plates were coated with human RAGE-Fc (5 ug/ml) or BSA (200 ug/ml) in bicarbonate buffer overnight at 4 °C, washed with PBS+tween 0.05% and blocked for 1 hour at room temperature with 2% milk powder PBS. Periplasmic preparations of 20 ml E. coli cultures were performed using standard procedures. The final volume of periplasmic preparations of unpurified ScFv antibodies was 1 ml of which 50 ul was pre-incubated with anti-His antibody at 1/1000 dilution for 1 hour at room temperature in a total volume of 100 ul with 2% milk powder PBS. The cross linked periplasmic preparations were added to the ELISA plate and incubated for a further 2 hours at room temperature. The plates were washed 2 times with PBS+0.05% tween and 2 times with PBS and incubated with rabbit anti-mouse HRP at 1/1000 dilution in 2% milk powder PBS. The plates were washed as before and binding was detected using standard TMB reagents. […] Starting Kd values of the ScFv in both formats as determined by BIACORE™ are used to determine the optimum antigen concentrations for affinity selections.

[3] = target: T3, murine RAGE-strep tag fusion protein (mouse, UniProt Q62151 23-343); test: BIACORE capture, SA-Mu RAGE over captured antibody, 1:1 Langmuir global fit, FC2
T3 construct: also called mRAGE-strep; mRAGE-SA
T3 chain: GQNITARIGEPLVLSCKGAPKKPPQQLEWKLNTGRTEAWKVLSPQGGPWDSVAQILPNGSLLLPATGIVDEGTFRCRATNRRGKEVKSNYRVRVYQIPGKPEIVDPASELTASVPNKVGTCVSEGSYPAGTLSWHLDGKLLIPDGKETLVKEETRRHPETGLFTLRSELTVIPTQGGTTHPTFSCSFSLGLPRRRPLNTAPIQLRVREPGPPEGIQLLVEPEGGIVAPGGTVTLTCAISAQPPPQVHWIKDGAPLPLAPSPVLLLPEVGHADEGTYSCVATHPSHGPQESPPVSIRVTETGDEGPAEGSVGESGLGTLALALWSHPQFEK
Protocol: (§1) The assays were performed by coating anti-human Fc antibodies onto a CM5 BIA chip with 5000 RU (pH 5.0, 7 min.) in flow cells 1-4. Each antibody was captured by flowing at 2.0 μg/ml over the anti-Fc antibodies in flow cells 2-4 (flow cell 1 was used as a reference).

[4] = target: T4, soluble human streptavidin-tagged RAGE (human, UniProt Q15109 23-344); test: BIACORE capture, hRAGE-SA over captured antibody, steady state affinity, row Average
T4 construct: also called hRAGE-SA; human RAGE-strep
Protocol: as §1

[5] = target: T3, murine RAGE-strep tag fusion protein; test: BIACORE capture, SA-Mu RAGE over captured antibody, 1:1 Langmuir global fit, row Average
Protocol: as §1

[6] = target: T4, soluble human streptavidin-tagged RAGE; test: BIACORE capture, hRAGE-SA over captured antibody, 1:1 Langmuir global fit, FC4
Protocol: as §1

[7] = target: T3, murine RAGE-strep tag fusion protein; test: BIACORE capture, SA-Mu RAGE over captured antibody, 1:1 Langmuir global fit, FC3
Protocol: as §1

[8] = target: T4, soluble human streptavidin-tagged RAGE; test: BIACORE capture, hRAGE-SA over captured antibody, steady state affinity, FC2
Protocol: as §1

[9] = target: T4, soluble human streptavidin-tagged RAGE; test: BIACORE capture, hRAGE-SA over captured antibody, steady state affinity, FC3
Protocol: as §1

[10] = target: T4, soluble human streptavidin-tagged RAGE; test: BIACORE capture, hRAGE-SA over captured antibody, steady state affinity, FC4
Protocol: as §1

[11] = target: T4, soluble human streptavidin-tagged RAGE; test: BIACORE capture, hRAGE-SA over captured antibody, 1:1 Langmuir global fit, FC2
Protocol: as §1

[12] = target: T4, soluble human streptavidin-tagged RAGE; test: BIACORE capture, hRAGE-SA over captured antibody, 1:1 Langmuir global fit, FC3
Protocol: as §1

[13] = target: T3, murine RAGE-strep tag fusion protein; test: BIACORE capture, SA-Mu RAGE over captured antibody, 1:1 Langmuir global fit, FC4
Protocol: as §1

[14] = target: T4, soluble human streptavidin-tagged RAGE; test: BIACORE capture, hRAGE-SA over captured antibody, 1:1 Langmuir global fit, row Average
Protocol: as §1

[15] = target: T1, human RAGE-Fc fusion protein; test: competition ELISA on coated hRAGE-Fc; competitor 12.5 ng/ml biotinylated rat XT-M4
Protocol: ELISA plates were coated overnight with 1 ug/ml human RAGE-Fc. […] Briefly, plates were coated overnight with 1 ug/ml human RAGE-Fc.

T2 sequence (P02769 25-607 limits assumed): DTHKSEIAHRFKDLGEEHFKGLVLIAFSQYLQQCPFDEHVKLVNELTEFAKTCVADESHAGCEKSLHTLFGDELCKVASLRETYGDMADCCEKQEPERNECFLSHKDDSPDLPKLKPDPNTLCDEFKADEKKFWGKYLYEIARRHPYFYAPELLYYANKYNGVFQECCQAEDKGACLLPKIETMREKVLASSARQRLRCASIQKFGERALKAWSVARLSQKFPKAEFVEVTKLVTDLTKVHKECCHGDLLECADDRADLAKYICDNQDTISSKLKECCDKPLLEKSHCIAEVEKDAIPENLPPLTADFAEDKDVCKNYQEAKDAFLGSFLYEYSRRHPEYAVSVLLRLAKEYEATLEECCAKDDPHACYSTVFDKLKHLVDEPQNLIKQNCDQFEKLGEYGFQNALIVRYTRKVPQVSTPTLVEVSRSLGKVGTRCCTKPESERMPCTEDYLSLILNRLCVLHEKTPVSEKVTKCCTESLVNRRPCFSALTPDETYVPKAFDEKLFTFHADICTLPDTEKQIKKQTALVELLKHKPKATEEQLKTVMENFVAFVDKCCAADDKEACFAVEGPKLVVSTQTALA

B1: XT-H2 VH-VL ScFv construct (scFv)
scFv: QVQLQQSGAELAKPGASVKMSCKASGYTFTTYWMHWVKQRPGQGLYWIGYINPSTGYTEYNQKFKDKATLTADKSSSTAYMQLSSLTSEDSAVYYCARWAGYTIDYWGQGTSVTVSSDGGGSGGGGSGGGGSSDVVLTQTPLSLPVNIGDQASISCKSTKSLLNSDGFTYLDWYLQKPGQSPQLLIYLVSDRFSGVPDRFSGSGSGTDFTLTISRVEAEDLGVYYCFQSNSLPLTFGSGTKLEIK
notes: Flag tag inferred from detection
B1: binds [1].

B2: XT-M4 VL-VH ScFv construct (scFv)
scFv: DIQMTQSPSSMSVSLGDTITITCRASQDVGIYVNWFQQKPGKSPRRMIYRATNLADGVPSRFSGSRSGSIYSLTISSLESEDVADYHCLEFDEHPLTFGSGTKVEIKDGGGSGGGGSGGGGSSEVQLVESGGGLVQPGRSLKLSCVVSGFTFNNYWMTWIRQTPGKGLEWVASINNSGDNTYYPDSVKDRFTISRDNAKSTLYLQMNSLRSEDTATYYCTRGGDITTGFDYWGQGVMVTVSS
notes: Tags (Flag in vitro, His in E. coli) inferred from detection
B2: binds [1]; no binding [2].

B3: XT-M4 VH-VL ScFv construct (scFv)
scFv: EVQLVESGGGLVQPGRSLKLSCVVSGFTFNNYWMTWIRQTPGKGLEWVASINNSGDNTYYPDSVKDRFTISRDNAKSTLYLQMNSLRSEDTATYYCTRGGDITTGFDYWGQGVMVTVSSDGGGSGGGGSGGGGSSDIQMTQSPSSMSVSLGDTITITCRASQDVGIYVNWFQQKPGKSPRRMIYRATNLADGVPSRFSGSRSGSIYSLTISSLESEDVADYHCLEFDEHPLTFGSGTKVEIK
notes: as for B1
B3: binds [1].

B4: XT-M4-V14 (antibody, V domains shown)
VH: EVQLVESGGGLVQPGGSLRLSCAASGFTFNNYWMTWVRQAPGKGLEWVASIDNSGDNTYYPDSVKDRFTISRDNAKNSLYLQMNSLRAEDTAVYYCARGGDITTGFDYWGQGTLVTVSS
VL: DIQMTQSPSSLSASVGDRVTITCRASQDVGIYVNWFQQKPGKAPKRLIYRATNLADGVPSRFSGSRSGTDFTLTISSLQPEDFATYYCLEFDEHPLTFGGGTKVEIK
A Kd [3] of 2 nM, a koff [3] of 0.0043 s⁻¹ and a kon [3] of 2.2e+06 M⁻¹ s⁻¹ were found for B4 in this work. For the same binder, the Kd [4] was 16 nM, the Kd [5] was 2 nM and the koff [5] was 0.0042 s⁻¹. It also gave a kon [5] of 2.1e+06 M⁻¹ s⁻¹, a Kd [6] of 13.2 nM and a koff [6] of 0.0661 s⁻¹. For the same binder, the kon [6] was 5.02e+06 M⁻¹ s⁻¹, the Kd [7] was 1.9 nM and the koff [7] was 0.004 s⁻¹. For the same binder, the kon [7] was 2.1e+06 M⁻¹ s⁻¹, the Kd [8] was 16 nM and the Kd [9] was 15 nM. For the same binder, the Kd [10] was 16 nM, the Kd [11] was 13.8 nM and the koff [11] was 0.0366 s⁻¹. For the same binder, the kon [11] was 2.66e+06 M⁻¹ s⁻¹, the Kd [12] was 11.7 nM and the koff [12] was 0.0464 s⁻¹. For the same binder, the kon [12] was 3.96e+06 M⁻¹ s⁻¹, the Kd [13] was 2 nM and the koff [13] was 0.0041 s⁻¹. The kon [13] was 2.1e+06 M⁻¹ s⁻¹, the Kd [14] was 12.9 nM and the koff [14] was 0.0497 s⁻¹. It also gave a kon [14] of 3.88e+06 M⁻¹ s⁻¹.

B5: humanized XT-M4 hVH-V2.0 / hVL-V2.11 (antibody, human IgG1, V domains shown)
VH: EVQLVESGGGLVQPGGSLRLSCAASGFTFNNYWMTWVRQAPGKGLEWVASIDNSGDNTYYPDSVKDRFTISRDNAKNSLYLQMNSLRAEDTAVYYCARGGDITTGFDYWGQGTLVTVSS
VL: DIQMTQSPSSLSASVGDRVTITCRASQDVGIYVNWFQQKPGKAPRRLIYRATNLADGVPSRFSGSRSGTDFTLTISSLQPEDFATYYCLEFDEHPLTFGGGTKVEIK
In the case of B5, the IC50 [15] is reported as 0.15 to 1.05 µg/mL and 0.1 to 0.45 µg/mL.

B6: humanized XT-M4 hVH-V2.0 / hVL-V2.12 (antibody, human IgG1, V domains shown)
VH: EVQLVESGGGLVQPGGSLRLSCAASGFTFNNYWMTWVRQAPGKGLEWVASIDNSGDNTYYPDSVKDRFTISRDNAKNSLYLQMNSLRAEDTAVYYCARGGDITTGFDYWGQGTLVTVSS
VL: DIQMTQSPSSLSASVGDRVTITCRASQDVGIYVNWYQQKPGKAPRRLIYRATNLADGVPSRFSGSRSGTDFTLTISSLQPEDFATYYCLEFDEHPLTFGGGTKVEIK
An IC50 [15] of 2.7 µg/mL was found for B6 in this work.

B7: humanized XT-M4 hVH-V2.0 / hVL-V2.14 (antibody, human IgG1, V domains shown)
VH: EVQLVESGGGLVQPGGSLRLSCAASGFTFNNYWMTWVRQAPGKGLEWVASIDNSGDNTYYPDSVKDRFTISRDNAKNSLYLQMNSLRAEDTAVYYCARGGDITTGFDYWGQGTLVTVSS
VL: DIQMTQSPSSLSASVGDRVTITCRASQDVGIYVNWFQQKPGKAPKRLIYRATNLADGVPSRFSGSRSGTDFTLTISSLQPEDFATYYCLEFDEHPLTFGGGTKVEIK
An IC50 [15] of 0.2 µg/mL was found for B7 in this work.

B8: humanized XT-M4 hVH-V2.0 / hVL-V2.13 (antibody, human IgG1, V domains shown)
VH: EVQLVESGGGLVQPGGSLRLSCAASGFTFNNYWMTWVRQAPGKGLEWVASIDNSGDNTYYPDSVKDRFTISRDNAKNSLYLQMNSLRAEDTAVYYCARGGDITTGFDYWGQGTLVTVSS
VL: DIQMTQSPSSLSASVGDRVTITCRASQDVGIYVNWYQQKPGKAPKRLIYRATNLADGVPSRFSGSRSGTDFTLTISSLQPEDFATYYCLEFDEHPLTFGGGTKVEIK
An IC50 [15] of 1.5 µg/mL was found for B8 in this work.

B9: XT-M4-V11 (antibody, V domains shown)
VH: EVQLVESGGGLVQPGGSLRLSCAASGFTFNNYWMTWVRQAPGKGLEWVASIDNSGDNTYYPDSVKDRFTISRDNAKNSLYLQMNSLRAEDTAVYYCARGGDITTGFDYWGQGTLVTVSS
VL: DIQMTQSPSSLSASVGDRVTITCRASQDVGIYVNWFQQKPGKAPRRLIYRATNLADGVPSRFSGSRSGTDFTLTISSLQPEDFATYYCLEFDEHPLTFGGGTKVEIK
A Kd [3] of 2 nM, a koff [3] of 0.0043 s⁻¹ and a kon [3] of 2.2e+06 M⁻¹ s⁻¹ were found for B9 in this work. For the same binder, the Kd [4] was 16 nM, the Kd [5] was 2 nM and the koff [5] was 0.0042 s⁻¹. The kon [5] was 2.1e+06 M⁻¹ s⁻¹, the Kd [6] was 13 nM and the koff [6] was 0.041 s⁻¹. It also gave a kon [6] of 3.2e+06 M⁻¹ s⁻¹, a Kd [7] of 2 nM and a koff [7] of 0.0042 s⁻¹. The kon [7] was 2.1e+06 M⁻¹ s⁻¹, the Kd [8] was 16 nM and the Kd [9] was 15 nM. The Kd [10] was 17 nM, the Kd [11] was 13 nM and the koff [11] was 0.033 s⁻¹. For the same binder, the kon [11] was 2.5e+06 M⁻¹ s⁻¹, the Kd [12] was 12 nM and the koff [12] was 0.039 s⁻¹. For the same binder, the kon [12] was 3.4e+06 M⁻¹ s⁻¹, the Kd [13] was 2 nM and the koff [13] was 0.0041 s⁻¹. The kon [13] was 2e+06 M⁻¹ s⁻¹, the Kd [14] was 12.5 nM and the koff [14] was 0.0374 s⁻¹. For the same binder, the kon [14] was 3.01e+06 M⁻¹ s⁻¹.
